Measurements published in doi:10.1101/2023.02.14.528348v1.

Substrate: C[C@H](N)C(=O)N[C@@H](C)C(=O)O
Test: proton-coupled uptake, pyranine fluorescence assay in proteoliposomes
Type: biochemical, Escherichia coli
Details: valinomycin / potassium gradient driven membrane potential

B1: DtpB (Escherichia coli K-12) (protein)
chain: MNTTTPMGMLQQPRPFFMIFFVELWERFGYYGVQGVLAVFFVKQLGFSQEQAFVTFGAFAALVYGLISIGGYVGDHLLGTKRTIVLGALVLAIGYFMTGMSLLKPDLIFIALGTIAVGNGLFKANPASLLSKCYPPKDPRLDGAFTLFYMSINIGSLIALSLAPVIADRFGYSVTYNLCGAGLIIALLVYIACRGMVKDIGSEPDFRPMSFSKLLYVLLGSVVMIFVCAWLMHNVEVANLVLIVLSIVVTIIFFRQAFKLDKTGRNKMFVAFVLMLEAVVFYILYAQMPTSLNFFAINNVHHEILGFSINPVSFQALNPFWVVLASPILAGIYTHLGNKGKDLSMPMKFTLGMFMCSLGFLTAAAAGMWFADAQGLTSPWFIVLVYLFQSLGELFISALGLAMIAALVPQHLMGFILGMWFLTQAAAFLLGGYVATFTAVPDNITDPLETLPVYTNVFGKIGLVTLGVAVVMLLMVPWLKRMIATPESH
**Q.** Which Km does the source give for B1 here?
**A.** 290 ± 40 µM
